Stoichiometry N data for one substance are collected here from publication PMC9592583.

In this assay the target is proMbxA (6H-MbxA, non-acylated precursor of the RTX toxin MbxA from Moraxella bovis) (Moraxella bovis). Briefly: SEC-MALS; proMbxA species of SEC peak 1, 1.3-2.5 mg/ml, 200 ul on Superose 6 Increase 10/300 GL; 50 mM TRIS pH 7.8, 100 mM NaCl, 10 mM CaCl2. Background: SEC sorts molecules by how far they enter the pores of the column.

As usually defined, the stoichiometry N is the number of molecules, sites or subunits per partner or assembly. “proMbxA (6H-MbxA, non-acylated precursor of the RTX toxin MbxA from Moraxella bovis) (natural protein)” yielded a stoichiometry N of 2.
